Reference: patent publication US20190083491, “SMALL MOLECULES INHIBITORS OF RAD51” (The University of Chicago, published 2019)

Biological target: RAD51 (Homo sapiens, UniProt Q06609 Q06609:2-339)
Experiment: FP; 0.2 uM RAD51, 2.22 nM ssDNA, 2 mM ATP, 10 mM MgCl2, 30 mM NaCl, pH 7.5, 37 C; binding used to measure compound effects, no Kd given
Conditions: tags: human RAD51, purified as previously described (source inferred); label: 5'-Alexa488
Experimental: In each well, RAD51 protein was combined with reaction buffer and varying concentrations of compound in DMSO in an initial volume of 40 μl and incubated at 37° C. for 40 minutes. […] The final reaction contained 4% DMSO, 0.2 μM RAD51, 30 mM NaCl, 2% glycerol, and 2.22 nM ssDNA substrate.

Sequence of RAD51 (Q06609 2-339, one chain of several): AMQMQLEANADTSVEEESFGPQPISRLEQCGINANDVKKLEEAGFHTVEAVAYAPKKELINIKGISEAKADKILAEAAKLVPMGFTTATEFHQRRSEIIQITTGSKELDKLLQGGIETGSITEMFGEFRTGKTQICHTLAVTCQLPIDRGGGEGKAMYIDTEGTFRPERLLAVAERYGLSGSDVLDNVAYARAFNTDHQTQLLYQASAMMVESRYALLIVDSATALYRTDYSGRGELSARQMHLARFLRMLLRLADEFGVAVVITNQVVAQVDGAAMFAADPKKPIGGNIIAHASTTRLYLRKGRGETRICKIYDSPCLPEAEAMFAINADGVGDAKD

TTTTTTTTTTTTTTTTTTTTTTTTTTTTTTTTTTTTTTTTTTTTT (ssDNA) [Alexa488-oligo-dT45]
binding result: binds
